Results taken from US20240261333A1, “NOVEL TARGETS FOR ENHANCING ANTI-TUMOR IMMUNITY” (THE BROAD INSTITUTE, INC., priority 2021, published 2024).

What was measured:
[1] = target: EIF3I (human) (UniProt Q13347); experiment: co-IP with mouse anti-FLAG from lysate of cells overexpressing C-FLAG B3GNT2, then mass spectrometry
[2] = target: MAGED2 (human) (UniProt Q9UNF1); experiment: as above
[3] = target: SRP14 (human) (UniProt P37108); experiment: as above
[4] = target: SUPT16H (human) (UniProt Q9Y5B9); experiment: as above
[5] = target: TAF15 (human) (UniProt Q92804); experiment: as above
[6] = target: TCP1 (human) (UniProt P17987); experiment: as above
[7] = target: TFAM (human) (UniProt Q00059); experiment: as above
[8] = target: TIMP3 (human) (UniProt P35625); experiment: as above
[9] = target: DDX1 (human) (UniProt Q92499); experiment: control IP with IgG, lysate of cells with C-FLAG B3GNT2, mass spectrometry
[10] = target: DHX9 (human) (UniProt Q08211); experiment: as above
[11] = target: GEMIN4 (human) (UniProt P57678); experiment: as above
[12] = target: GSN (human) (UniProt P06396); experiment: as above
[13] = target: S100A7 (human) (UniProt P31151); experiment: as above
[14] = target: SYNPO (human) (UniProt Q8N3V7); experiment: as above
[15] = target: T1, YTHDF2 (human) (UniProt Q9Y5A9); experiment: as above
T1 sequence (looked up): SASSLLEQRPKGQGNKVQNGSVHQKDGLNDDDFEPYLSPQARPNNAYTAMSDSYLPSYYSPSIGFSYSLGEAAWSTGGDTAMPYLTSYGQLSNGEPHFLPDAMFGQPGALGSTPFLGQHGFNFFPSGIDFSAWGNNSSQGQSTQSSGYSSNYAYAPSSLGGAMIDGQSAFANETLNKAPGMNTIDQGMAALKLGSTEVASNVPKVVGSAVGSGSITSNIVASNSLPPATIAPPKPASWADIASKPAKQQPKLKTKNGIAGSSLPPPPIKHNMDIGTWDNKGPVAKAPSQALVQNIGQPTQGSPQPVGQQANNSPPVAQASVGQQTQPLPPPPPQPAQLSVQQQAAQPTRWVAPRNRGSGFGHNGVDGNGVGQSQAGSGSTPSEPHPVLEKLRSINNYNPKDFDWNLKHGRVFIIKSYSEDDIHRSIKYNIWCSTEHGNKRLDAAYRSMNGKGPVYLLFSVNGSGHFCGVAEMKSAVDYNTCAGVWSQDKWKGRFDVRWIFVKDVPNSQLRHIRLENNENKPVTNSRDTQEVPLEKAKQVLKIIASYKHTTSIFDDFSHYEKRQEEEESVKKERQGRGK

[16] = target: ANXA2 (human) (UniProt P07355); experiment: IgG control IP from lysate of cells overexpressing N-FLAG B3GNT2, then mass spectrometry
[17] = target: CAPRIN1 (human) (UniProt Q14444); experiment: as above
[18] = target: CASC3 (human) (UniProt O15234); experiment: as above
[19] = target: CPSF6 (human) (UniProt Q16630); experiment: as above
[20] = target: EIF3I (human) (UniProt Q13347); experiment: as above
[21] = target: KHDRBS1 (human) (UniProt Q07666); experiment: as above
[22] = target: MAGED2 (human) (UniProt Q9UNF1); experiment: as above
[23] = target: PABPC1 (human) (UniProt P11940); experiment: as above
[24] = target: SRP14 (human) (UniProt P37108); experiment: as above
[25] = target: SUPT16H (human) (UniProt Q9Y5B9); experiment: as above
[26] = target: TAF15 (human) (UniProt Q92804); experiment: as above
[27] = target: TCP1 (human) (UniProt P17987); experiment: as above
[28] = target: TFAM (human) (UniProt Q00059); experiment: as above
[29] = target: TIMP3 (human) (UniProt P35625); experiment: as above
[30] = target: VIM (human) (UniProt P08670); experiment: as above
[31] = target: RPS27 (human) (UniProt P42677); experiment: co-IP with anti-FLAG, mass spectrometry; lysate of cells with N-FLAG B3GNT2

Sequence of MAGED2 (human) (Q9UNF1 2-606 limits assumed): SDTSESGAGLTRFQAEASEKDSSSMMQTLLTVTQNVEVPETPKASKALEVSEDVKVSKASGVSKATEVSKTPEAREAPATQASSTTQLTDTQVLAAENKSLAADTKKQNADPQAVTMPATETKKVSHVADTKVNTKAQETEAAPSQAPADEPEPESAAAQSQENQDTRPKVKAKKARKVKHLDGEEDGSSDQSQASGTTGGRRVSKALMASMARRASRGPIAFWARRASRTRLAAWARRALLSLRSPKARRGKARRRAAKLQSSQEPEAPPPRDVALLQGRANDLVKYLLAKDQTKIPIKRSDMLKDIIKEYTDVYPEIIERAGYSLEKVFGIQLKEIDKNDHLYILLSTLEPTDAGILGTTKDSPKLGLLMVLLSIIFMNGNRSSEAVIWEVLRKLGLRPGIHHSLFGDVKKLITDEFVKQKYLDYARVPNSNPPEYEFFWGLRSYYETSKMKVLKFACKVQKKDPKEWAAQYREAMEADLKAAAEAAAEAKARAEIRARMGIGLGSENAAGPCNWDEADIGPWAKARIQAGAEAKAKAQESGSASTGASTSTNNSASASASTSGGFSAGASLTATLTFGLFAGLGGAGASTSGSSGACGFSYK
Sequence of TCP1 (human) (P17987 whole entry): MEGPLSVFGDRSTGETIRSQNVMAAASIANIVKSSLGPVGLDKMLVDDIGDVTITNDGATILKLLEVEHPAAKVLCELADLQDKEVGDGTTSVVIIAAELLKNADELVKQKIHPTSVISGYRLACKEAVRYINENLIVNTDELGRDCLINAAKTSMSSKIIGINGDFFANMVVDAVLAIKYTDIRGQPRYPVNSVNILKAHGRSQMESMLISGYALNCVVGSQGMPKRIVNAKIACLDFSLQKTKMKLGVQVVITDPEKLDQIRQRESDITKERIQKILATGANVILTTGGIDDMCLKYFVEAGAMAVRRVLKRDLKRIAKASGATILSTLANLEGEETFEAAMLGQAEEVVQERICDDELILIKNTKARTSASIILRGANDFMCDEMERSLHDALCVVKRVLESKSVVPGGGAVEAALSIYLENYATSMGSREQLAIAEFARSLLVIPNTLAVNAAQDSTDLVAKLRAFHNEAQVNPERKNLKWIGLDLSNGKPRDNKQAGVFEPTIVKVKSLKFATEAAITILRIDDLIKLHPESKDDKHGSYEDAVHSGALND
Sequence of TAF15 (human) (Q92804 other isoform, or with tags, fused parts or gaps limits assumed): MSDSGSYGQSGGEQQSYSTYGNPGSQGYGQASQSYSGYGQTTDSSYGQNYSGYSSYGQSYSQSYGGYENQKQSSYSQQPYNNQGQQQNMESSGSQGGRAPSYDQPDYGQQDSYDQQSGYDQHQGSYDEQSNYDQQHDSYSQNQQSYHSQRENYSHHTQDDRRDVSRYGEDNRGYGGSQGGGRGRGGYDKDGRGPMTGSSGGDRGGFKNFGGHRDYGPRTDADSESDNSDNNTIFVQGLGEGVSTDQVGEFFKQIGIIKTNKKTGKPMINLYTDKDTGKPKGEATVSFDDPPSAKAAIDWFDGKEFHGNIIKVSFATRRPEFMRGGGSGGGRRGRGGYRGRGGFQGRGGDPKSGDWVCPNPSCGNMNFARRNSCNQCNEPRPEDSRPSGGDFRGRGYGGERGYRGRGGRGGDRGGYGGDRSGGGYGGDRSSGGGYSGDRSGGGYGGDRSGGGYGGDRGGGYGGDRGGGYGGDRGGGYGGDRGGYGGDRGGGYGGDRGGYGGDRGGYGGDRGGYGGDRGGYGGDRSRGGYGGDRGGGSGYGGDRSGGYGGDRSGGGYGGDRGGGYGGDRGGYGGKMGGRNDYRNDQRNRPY
Sequence of SUPT16H (human) (Q9Y5B9 2-1047 limits assumed): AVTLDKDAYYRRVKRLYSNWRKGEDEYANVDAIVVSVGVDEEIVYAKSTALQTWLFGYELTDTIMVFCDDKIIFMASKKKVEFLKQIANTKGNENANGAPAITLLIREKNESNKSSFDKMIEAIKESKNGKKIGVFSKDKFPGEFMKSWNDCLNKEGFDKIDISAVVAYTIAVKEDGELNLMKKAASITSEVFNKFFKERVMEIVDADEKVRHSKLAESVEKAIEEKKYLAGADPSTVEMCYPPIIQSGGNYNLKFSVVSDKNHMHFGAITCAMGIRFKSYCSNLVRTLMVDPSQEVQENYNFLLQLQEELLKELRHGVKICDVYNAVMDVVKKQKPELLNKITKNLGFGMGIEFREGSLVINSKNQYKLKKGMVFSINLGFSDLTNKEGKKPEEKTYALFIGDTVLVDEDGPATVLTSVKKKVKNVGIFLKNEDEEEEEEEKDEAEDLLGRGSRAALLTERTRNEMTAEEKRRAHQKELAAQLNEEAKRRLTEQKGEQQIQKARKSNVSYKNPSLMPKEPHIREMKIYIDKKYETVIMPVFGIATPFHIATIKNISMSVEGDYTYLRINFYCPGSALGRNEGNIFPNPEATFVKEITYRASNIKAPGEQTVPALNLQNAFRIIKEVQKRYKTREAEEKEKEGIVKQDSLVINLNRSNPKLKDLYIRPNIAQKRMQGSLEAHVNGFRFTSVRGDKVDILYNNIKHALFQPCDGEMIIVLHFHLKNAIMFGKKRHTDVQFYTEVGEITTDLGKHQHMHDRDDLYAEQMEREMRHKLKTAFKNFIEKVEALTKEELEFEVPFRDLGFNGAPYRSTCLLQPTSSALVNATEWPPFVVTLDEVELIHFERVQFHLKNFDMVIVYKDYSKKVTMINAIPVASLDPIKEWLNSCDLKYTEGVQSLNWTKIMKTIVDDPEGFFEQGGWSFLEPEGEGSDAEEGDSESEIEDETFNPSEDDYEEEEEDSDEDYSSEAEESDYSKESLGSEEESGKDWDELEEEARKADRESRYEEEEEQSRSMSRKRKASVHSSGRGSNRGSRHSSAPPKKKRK
Sequence of SRP14 (human) (P37108 2-136 limits assumed): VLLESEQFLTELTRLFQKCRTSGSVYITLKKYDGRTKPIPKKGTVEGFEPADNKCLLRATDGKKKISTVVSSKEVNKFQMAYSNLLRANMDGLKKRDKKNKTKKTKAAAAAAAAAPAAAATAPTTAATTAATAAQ
Sequence of TIMP3 (human) (P35625 24-211 limits assumed): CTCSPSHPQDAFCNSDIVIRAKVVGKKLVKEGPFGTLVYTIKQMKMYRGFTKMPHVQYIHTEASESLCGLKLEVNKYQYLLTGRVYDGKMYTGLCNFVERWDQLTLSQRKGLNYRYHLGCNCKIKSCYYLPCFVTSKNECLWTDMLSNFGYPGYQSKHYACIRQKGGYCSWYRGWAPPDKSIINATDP
Sequence of EIF3I (human) (Q13347 whole entry): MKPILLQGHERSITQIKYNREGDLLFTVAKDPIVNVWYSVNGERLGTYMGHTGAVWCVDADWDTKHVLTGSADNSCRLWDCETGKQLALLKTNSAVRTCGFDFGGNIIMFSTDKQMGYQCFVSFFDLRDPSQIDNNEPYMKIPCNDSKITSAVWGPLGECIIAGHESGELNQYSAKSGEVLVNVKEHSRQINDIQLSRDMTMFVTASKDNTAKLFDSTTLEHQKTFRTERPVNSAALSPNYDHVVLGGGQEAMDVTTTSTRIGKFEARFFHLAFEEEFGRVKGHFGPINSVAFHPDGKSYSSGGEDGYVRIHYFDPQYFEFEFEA
Sequence of TFAM (human) (Q00059 43-246 limits assumed): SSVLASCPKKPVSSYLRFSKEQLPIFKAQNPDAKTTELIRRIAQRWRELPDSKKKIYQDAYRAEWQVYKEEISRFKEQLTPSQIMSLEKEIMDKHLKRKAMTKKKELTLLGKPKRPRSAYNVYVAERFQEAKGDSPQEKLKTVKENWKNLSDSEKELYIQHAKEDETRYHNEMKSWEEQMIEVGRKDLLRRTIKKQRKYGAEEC
Sequence of CAPRIN1 (human) (Q14444 2-709 limits assumed): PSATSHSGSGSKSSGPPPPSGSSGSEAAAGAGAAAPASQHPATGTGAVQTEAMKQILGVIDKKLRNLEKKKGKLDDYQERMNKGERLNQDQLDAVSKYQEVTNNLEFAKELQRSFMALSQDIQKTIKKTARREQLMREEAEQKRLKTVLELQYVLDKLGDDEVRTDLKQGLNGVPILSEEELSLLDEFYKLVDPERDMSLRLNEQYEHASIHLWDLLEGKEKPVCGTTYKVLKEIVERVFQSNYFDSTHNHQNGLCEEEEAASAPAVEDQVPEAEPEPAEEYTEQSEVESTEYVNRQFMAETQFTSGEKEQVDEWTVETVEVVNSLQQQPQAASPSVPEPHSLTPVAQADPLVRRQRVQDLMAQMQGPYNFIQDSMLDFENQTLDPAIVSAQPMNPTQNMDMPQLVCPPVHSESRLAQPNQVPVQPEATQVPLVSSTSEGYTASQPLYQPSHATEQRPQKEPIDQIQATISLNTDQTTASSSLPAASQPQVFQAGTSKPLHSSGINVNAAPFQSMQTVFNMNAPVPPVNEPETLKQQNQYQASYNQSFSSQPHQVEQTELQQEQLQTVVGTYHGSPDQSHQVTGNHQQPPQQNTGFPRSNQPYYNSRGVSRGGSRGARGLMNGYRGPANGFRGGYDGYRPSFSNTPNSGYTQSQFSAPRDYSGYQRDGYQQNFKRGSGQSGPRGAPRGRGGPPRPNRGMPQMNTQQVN
Sequence of KHDRBS1 (human) (Q07666 whole entry): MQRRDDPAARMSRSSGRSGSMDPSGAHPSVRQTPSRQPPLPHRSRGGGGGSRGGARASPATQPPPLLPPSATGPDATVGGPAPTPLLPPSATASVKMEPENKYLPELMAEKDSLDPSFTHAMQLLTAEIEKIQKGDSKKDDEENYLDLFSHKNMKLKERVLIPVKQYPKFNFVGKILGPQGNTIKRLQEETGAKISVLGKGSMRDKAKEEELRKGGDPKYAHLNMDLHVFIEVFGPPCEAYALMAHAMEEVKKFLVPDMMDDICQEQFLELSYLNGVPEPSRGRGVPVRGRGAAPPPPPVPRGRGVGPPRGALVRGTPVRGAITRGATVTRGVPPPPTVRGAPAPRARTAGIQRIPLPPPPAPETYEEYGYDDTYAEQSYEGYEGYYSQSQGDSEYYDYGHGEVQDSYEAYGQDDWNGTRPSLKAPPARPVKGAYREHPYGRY
Sequence of S100A7 (human) (P31151 2-101 limits assumed): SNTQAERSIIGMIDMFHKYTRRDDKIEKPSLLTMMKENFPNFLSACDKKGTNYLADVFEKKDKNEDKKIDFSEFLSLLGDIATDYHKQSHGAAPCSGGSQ

C-terminal FLAG tagged B3GNT2 (from UniProt Q9NY97 1-397) (enzyme)
co-IP mass spectrometry count (C-term flag) [1]: 3 | co-IP mass spectrometry count (C-term flag) [2]: 3 | co-IP mass spectrometry count (C-term flag) [3]: 3 | co-IP mass spectrometry count (C-term flag) [4]: 3 | co-IP mass spectrometry count (C-term flag) [5]: 10 | co-IP mass spectrometry count (C-term flag) [6]: 3 | co-IP mass spectrometry count (C-term flag) [7]: 3 | co-IP mass spectrometry count (C-term flag) [8]: 3

IgG control (Millipore Sigma 12-371) (antibody)
co-IP mass spectrometry count [9]: 5 | co-IP mass spectrometry count [10]: 0 | co-IP mass spectrometry count [11]: 0 | co-IP mass spectrometry count [12]: 0 | co-IP mass spectrometry count [13]: 3 | co-IP mass spectrometry count [14]: 4 | co-IP mass spectrometry count [15]: 2 | co-IP mass spectrometry count (N-term IgG) [16]: 15 | co-IP mass spectrometry count (N-term IgG) [17]: 6 | co-IP mass spectrometry count (N-term IgG) [18]: 0 | co-IP mass spectrometry count (N-term IgG) [19]: 28 | co-IP mass spectrometry count (N-term IgG) [20]: 0 | co-IP mass spectrometry count (N-term IgG) [21]: 10 | co-IP mass spectrometry count (N-term IgG) [22]: 0 | co-IP mass spectrometry count (N-term IgG) [23]: 37 | co-IP mass spectrometry count (N-term IgG) [24]: 0 | co-IP mass spectrometry count (N-term IgG) [25]: 0 | co-IP mass spectrometry count (N-term IgG) [26]: 10 | co-IP mass spectrometry count (N-term IgG) [27]: 0 | co-IP mass spectrometry count (N-term IgG) [28]: 0 | co-IP mass spectrometry count (N-term IgG) [29]: 0 | co-IP mass spectrometry count (N-term IgG) [30]: 452

N-terminal FLAG tagged B3GNT2 (from UniProt Q9NY97 1-397) (enzyme)
co-IP mass spectrometry count [31]: 2
